± gives the standard deviation of the averaged measurements.
Each sequence was assayed on Saccharomyces cerevisiae (assay: protein stability index of tFT-peptide fusion (C-terminal peptide) (PSI (0-1 scale)); higher = more stable (slower turnover)). Details: genetic background: wild type; temperature: 30 C.
Description: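 MPS profiling in S. cerevisiae of the yeast C-terminome library: the last 12 aa of each annotated ORF are fused to the C-terminus of a sfGFP-mCherry timer, after a GGGS linker. Cells are FACS-sorted into 8 mCherry/sfGFP bins and deep-sequenced. PSI runs from 0 (unstable) to 1 (stable); wild type and das1Δ backgrounds, two technical replicates each.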

Sequence | protein stability index
KLGLFRHIFSRK [LRE1 C-terminal 12 aa] | 0.704 ± 0.01
KLLIRFILLVNS [YPR130C C-terminal 12 aa] | 0.111 ± 0.0048
KLLLNELRSFCV [PCL10 C-terminal 12 aa] | 0.694 ± 0.028
KLLQIHKSKQQD [TAH11 C-terminal 12 aa] | 0.706 ± 0.012
KLRITSQENKTE [BCK1 C-terminal 12 aa] | 0.766 ± 0.036
KLRREDEIIVYA [REC8 C-terminal 12 aa] | 0.644 ± 0.0052
KLVWTLQSLCMR [YEL032C-A C-terminal 12 aa] | 0.681 ± 0.021
KMIESLKSKLKE [CIN5 C-terminal 12 aa] | 0.686 ± 0.027
KMKQRKLTPGDS [CMC4 C-terminal 12 aa] | 0.65 ± 0.0073
KNEEDSTYFSNV [PMR1 C-terminal 12 aa] | 0.698 ± 0.027
KNKTKQNQAQSW [LTO1 C-terminal 12 aa] | 0.679 ± 0.017
KNLWMRENEITI [HES1 C-terminal 12 aa] | 0.71 ± 0.018
KNSDSTEKNATI [DAT1 C-terminal 12 aa] | 0.736 ± 0.034
KPGTIIHFSTNR [ASK1 C-terminal 12 aa] | 0.691 ± 0.034
KQEQESLGSNSK [DAD3 C-terminal 12 aa] | 0.661 ± 0.035
KQLDLKHMLEMH [MRPL44 C-terminal 12 aa] | 0.6897 ± 0.0057
KQPDLQERVTQE [MHF1 C-terminal 12 aa] | 0.685 ± 0.14
KRAELASKYIYS [COG8 C-terminal 12 aa] | 0.692 ± 0.015
KRGEIYETGKFF [OLE1 C-terminal 12 aa] | 0.723 ± 0.011
KTSNTKVSSRKA [ELO3 C-terminal 12 aa] | 0.673 ± 0.03
KTSPTCHNMFDV [SDD4 C-terminal 12 aa] | 0.6781 ± 0.00075

Sequence | protein stability index
KVGNDHMELKKE [TFG1 C-terminal 12 aa] | 0.671 ± 0.035
KVHEHDAKNDSK [CMP2 C-terminal 12 aa] | 0.688 ± 0.054
KVTFINIEINYR [YGR064W C-terminal 12 aa] | 0.591 ± 0.03
KWFRENDGKKAN [TSC10 C-terminal 12 aa] | 0.6772 ± 0.0044
KWIEYVEEFQNW [FRE5 C-terminal 12 aa] | 0.73 ± 0.016
LAKGGADVKPKK [RDL2 C-terminal 12 aa] | 0.708 ± 0.033
LASALKELQDAA [YHR112C C-terminal 12 aa] | 0.682 ± 0.031
LASVRLSWYSII [YGR204C-A C-terminal 12 aa] | 0.277 ± 0.014
LDLVARTATLSN [NUP84 C-terminal 12 aa] | 0.713 ± 0.026
LDNILADLELDV [YIL001W C-terminal 12 aa] | 0.684 ± 0.046
LDYLSSYINRRI [FLP1 C-terminal 12 aa] | 0.6948 ± 0.0047
LEDEDVVTILKK [RBG1 C-terminal 12 aa] | 0.707 ± 0.0083
LEKQEDYIDNLV [RPC37 C-terminal 12 aa] | 0.73 ± 0.056
LFCNYITETVEN [ASH1 C-terminal 12 aa] | 0.645 ± 0.095
LFSNVLSLSSNI [YGL007C-A C-terminal 12 aa] | 0.695 ± 0.016
LIGGVGLSIWKK [RTT10 C-terminal 12 aa] | 0.668 ± 0.032
LIHASSVEQATA [MRPL4 C-terminal 12 aa] | 0.6986 ± 0.0057
LILQRLKTSLKI [GFD1 C-terminal 12 aa] | 0.668 ± 0.03
LIWLTIIYQALT [IRC18 C-terminal 12 aa] | 0.269 ± 0.0048
LKEFTQFCKDNS [MIX23 C-terminal 12 aa] | 0.721 ± 0.025
LKFEPTQEIVES [ITR2 C-terminal 12 aa] | 0.677 ± 0.032

Sequence | protein stability index
LKFLEEKFPHDK [AIM17 C-terminal 12 aa] | 0.691 ± 0.03
LKIKVHIYRMKR [YHL015W-A C-terminal 12 aa] | 0.5995 ± 0.0016
LKKEKLQALPTP [PDP3 C-terminal 12 aa] | 0.675 ± 0.011
LKLEQKIGELSK [CRN1 C-terminal 12 aa] | 0.718 ± 0.097
LKNGDKPHMLKF [RPL6A C-terminal 12 aa] | 0.72 ± 0.053
LKQIEMISGFSL [ADF1 C-terminal 12 aa] | 0.683 ± 0.053
LKTTPCLTHWYN [YIR030W-A C-terminal 12 aa] | 0.663 ± 0.033
LLCRDSSREVGE [YBL113C C-terminal 12 aa] | 0.673 ± 0.014
LLEGIIIKLFLY [YDL011C C-terminal 12 aa] | 0.174 ± 0.0066
LLGVGIAFYQDR [YJR112W-A C-terminal 12 aa] | 0.678 ± 0.018
LLLKVEKKGSKK [HTZ1 C-terminal 12 aa] | 0.716 ± 0.041
LLLQKSGTYLLL [ARV1 C-terminal 12 aa] | 0.638 ± 0.0066
LLLSIFSILIVL [YPS7 C-terminal 12 aa] | 0.2802 ± 0.0025
LLMVSVVNFVPL [YPL182C C-terminal 12 aa] | 0.479 ± 0.0093
LLNDIKRRNMGR [MET28 C-terminal 12 aa] | 0.723 ± 0.12
LLRNGDIDTITK [COG3 C-terminal 12 aa] | 0.68 ± 0.016
LLYLYDNDHTST [GPI19 C-terminal 12 aa] | 0.6907 ± 0.0034
LMAKRFQTGSLK [RTS3 C-terminal 12 aa] | 0.716 ± 0.043
LMFSKLGRYLFN [NSG1 C-terminal 12 aa] | 0.655 ± 0.021
LMLGVAYYLLNE [CYB5 C-terminal 12 aa] | 0.649 ± 0.048
LMVENFRKEYII [PTI1 C-terminal 12 aa] | 0.547 ± 0.031

Sequence | protein stability index
LMYIYQAFTTQD [GDT1 C-terminal 12 aa] | 0.663 ± 0.036
LNAFQHPIVEFQ [YEL028W C-terminal 12 aa] | 0.69 ± 0.022
LNDIGDPTKTVQ [YPL025C C-terminal 12 aa] | 0.705 ± 0.0072
LNEYSKDPPGNN [RAD18 C-terminal 12 aa] | 0.707 ± 0.021
LNNFKFKTNSKQ [XBP1 C-terminal 12 aa] | 0.679 ± 0.022
LNNTAASTGPGR [YKE2 C-terminal 12 aa] | 0.655 ± 0.0052
LNRKEESDSFVA [CHS3 C-terminal 12 aa] | 0.679 ± 0.017
LNTSNECCTSDD [BIL2 C-terminal 12 aa] | 0.669 ± 0.016
LNTYVILFYTVY [YOL166W-A C-terminal 12 aa] | 0.263 ± 0.0054
LPHFSHLHVHHD [YHR056W-A C-terminal 12 aa] | 0.719 ± 0.032
LPPGLNSKKNIK [EAP1 C-terminal 12 aa] | 0.658 ± 0.01
LPQRSIPCAIYP [YCR108C C-terminal 12 aa] | 0.7045 ± 0.0036
LSAGFGIGEFML [YGR079W C-terminal 12 aa] | 0.692 ± 0.036
LSAIVFLGTSSH [AVT5 C-terminal 12 aa] | 0.704 ± 0.021
LSDKNPEFKYMY [TNA1 C-terminal 12 aa] | 0.706 ± 0.0095
LSEASKLASKPL [COX15 C-terminal 12 aa] | 0.704 ± 0.039
LSLRSLQIMGRN [DSS4 C-terminal 12 aa] | 0.726 ± 0.024
LSSKKQTVMDKE [POL5 C-terminal 12 aa] | 0.749 ± 0.051
LSTKNIDDGMIS [COG7 C-terminal 12 aa] | 0.679 ± 0.052

— the supplement of paper PMC10724198
